Data published in patent US20240150490A1.

Columns and labels:
[1] = target: CA IX expressed by cells (C-33a_CA IX transfectants; hypoxic BT-20, JIMT-1, 8-MG-BA and 42-MG-BA cells) (human) (UniProt Q16790); test: flow cytometry, M75 1 ug/ml and Alexa 488 secondary antibody, hypoxic BT-20 cells
[2] = target: CA IX expressed by cells (C-33a_CA IX transfectants; hypoxic BT-20, JIMT-1, 8-MG-BA and 42-MG-BA cells) (human) (UniProt Q16790); test: flow cytometry, M75 1 ug/ml and Alexa 488 secondary antibody, hypoxic JIMT-1 cells

mouse monoclonal antibody M75
median signal level of CA IX-staining [1]: 108 | median signal level of CA IX-staining [2]: 86.8
